Values of other authors in patent US10227617B2, “Sequestration of carbon dioxide with hydrogen to useful products” (UNIVERSITY OF GEORGIA RESEARCH FOUNDATION, INC., priority 2012, dated 2019).

Conditions: reported data, FIG. 4; cited from earlier work

B1: Msed_1456: M. sedula 3-hydroxypropionate:CoA ligase, SEQ ID NO:6 (protein, listed as Metallosphaera sedula)
chain: MFMRYIMVEEQTLKTGSQELEEKADYNMRYYAHLMKLSKEKPAEFWGSLAQDLLDWYEPWKETMRQEDPMTRWFIGGKINASYNAVDRHLNGPRKFKAAVIWESELGERKIVTYQDMFYEVNRWANALRSLGVGKGDRVTIYMPLTPEGIAAMLASARIGAIHSVIFAGFGSQAIADRVEDAKAKVVITADAYPRRGKVVELKKTVDEALNSLGERSPVQHVLVYRRMKTDVNMKEGRDVFFDEVGKYRYVEPERMDSNDPLFILYTSGTTGKPKGIMHSTGGYLTGTAVMLLWSYGLSQENDVLFNTSDIGWIVGHSYITYSPLIMGRTVVIYESAPDYPYPDKWAEIIERYRATTFGTSATALRYFMKYGDEYVKNHDLSSIRIIVTNGEVLNYSPWKWGLEVLGGGKVFMSHQWWQTETGAPNLGYLPGIIYMPMKSGPASGFPLPGNFVEVLDENGNPSAPRVRGYLVMRPPFPPNMMMGMWNDNGERLKKTYFSKFGSLYYPGDFAMVDEDGYIWVLGRADETLKIAAHRIGAGEVESAITSHPSVAEAAVIGVPDSVKGEEVHAFVVLKQGYAPSSELAKDIQSHVRKVMGPIVSPQIHFVDKLPKTRSGKVMRRVIKAVMMGSSAGDLTTIEDEASMDEIKKAVEELKKELKTS
  activity on 3-hydroxybutyrate: > 1%
